This is an account of results in patent publication US10214741B2, “Methods and compositions for inhibiting retinopathy of prematurity” (University of Utah Research Foundation, priority 2014, dated 2019).

Data set [1] has as its system retina. To be noted: long-term periocular treatment; cited from earlier work.
In data set [2] the test system is macrophages. The data set is described as follows: Macrophages in rat ROP and ROP+SO models. It counts as in vivo. To be noted: 1 uL intravitreal. The text has this: Activation of NADPH oxidase generally requires aggregation of a NOX isoform (NOX1-5, Duox1 or 2) with membrane bound p22phox; for NOX1-3 activation, aggregation with Rac1 and cytoplasmic subunits p47phox, p67phox or homologs is also required. Few studies address oxygen effects on NADPH oxidase regulated signaling in ROP or development. Studying NADPH oxidase in vivo is also complicated, because 1) of compensation from NOX isoforms or homologs, which differ in different tissues, and 2) most inhibitors are not specific. In this example, oxygen stresses were varied by using 3 different OIR models: ROP and ROP+SO models in rat and OIR model in mouse. NADPH oxidase-induced signaling in ECs was targeted by reducing leukocyte/macrophages, which generate ROS through NADPH oxidase, or with a transgenic mouse. In rat ROP and ROP+SO models, macrophages ˜75% (FIG. 7A) were reduced with 1 uL intravitreal clodronate). […] Macrophages have multiple effects on angiogenesis including through non-NADPH oxidase mechanisms, so a more specific method was used to study NADPH oxidase-related signaling. NOX 1, 2, 4 are known to be involved in pathologic retinal angiogenesis; NOX2 is in macrophages and ECs. Therefore p47phox−/− mice were used to reduce NADPH oxidase activation from NOX 1-3. […]

Data set [3] concerns rat ROP model. The data set is described as follows: Lectin-stained retinal flat mounts, IVNV and AVA, rat ROP model (rat 50/10 OIR model). The format is in vivo. Conditions: 1 uL intravitreal, ROP model.
Data set [4] relates to STAT3. The data set is described as follows: Western blot of STAT3 in 293T cotransfected with Lenti-VE-cad-GFP-driven shRNA and plasmid expressing coding sequence. It counts as cell-based, rat. Conditions: 293Ts. From the text:
The strategy can be similar to knockdown of MC-expressed VEGFA, except a ve-cadherin promoter to target ECs can be used. The ve-cadherin promoter recruits polymerase II to drive miR30 embedded shRNAs. […] For control, shRNA targeted to luciferase (luc.shRNA), a nonmammalian gene, was used. Into a plasmid DNA expressing a Flag-tagged wild type (wt) coding sequence (wt-cDNA) for EPOR or VEGFR2, point mutations in the cognate region of the cDNA can be introduced where the shRNA binds to render the cDNA resistant to RISC cleavage without changing the native amino acid sequence (mut-cDNA). Then cotransfect 293T cells with either VEGFR2.shRNA or EPOR.shRNA and respective wt-cDNA or mut-cDNA. Off target effects can be determined by western blots of Flag expression or from interferon-induced genes using BLOCK-iT RNAi Stress Response Control Kit (Invitrogen, CA). Groups can be: rat EPOR.shRNAs+rat EPOR-wt-cDNA, rat EPOR. shRNAs+rat EPOR-mut-cDNA, rat VEGFR2.shRNA+rat VEGFR2-wt-cDNA or rat VEGFR2.shRNA+rat VEGFR2-mut-cDNA. Luc.shRNA and no DNA transfection can be controls. For specificity (FIG. 14A), lentiviral transduction of rECs, rat MCs (rMC-1s), human ARPE can be tested.
Using methods as in Example 5, 3 STAT3.shRNAs for knockdown in 293 Ts (FIG. 14D) were developed and tested. […]
For orientation: In western blotting, separated proteins are transferred to a membrane and probed.

The test system of data set [5] is rMVECs. Put plainly: Lentivirus transduction specificity (ve-cadherin promoter) in cultured cells. It counts as cell-based. Conditions: rMVECs vs rat MC-1s, 293T.
Data set [6] has as its system pSTAT3. Put plainly: IHC densitometry of pSTAT3 colabeled with lectin, p18 rat ROP model. The format is in vivo. Conditions: injected at p10, 10^6 viral particles/inj, vs. luc.shRNA.
Data set [7] has as its system EPOR. Put plainly: EPOR expression in hRMVECs (qPCR, Western blot). It counts as cell-based, human. To be noted: overnight treatment, vs PBS. The text has this: hRMVECs (Cell Systems, Kirkland, Wash.) were maintained in EGM-2 endothelial growth medium (Lonza, Walkers-ville, MD) supplemented with 5% fetal bovine serum. Cells of passage 3 to 5 were used for experiments. […]
For siRNA transfection, hRMVECs at 70% confluency were transfected in six-well plates with siRNAs targeting human EPOR, VEGFR2, or STAT3 (Life Technologies, Carlsbad, Calif.) using Lipofectamine 2000 reagent (Invitrogen by Life Technologies, Carlsbad, Calif.). A silencer selective negative control siRNA was used as control.
Total RNA of cells was extracted by TRI Reagent (Sigma-Aldrich, St. Louis, Mo.). For dissected retinas, total RNA was extracted using an RNeasy mini kit (Qiagen, Valencia, Calif.). RNA was quantified using a NanoDrop spectrophotometer (Thermo Fisher Scientific, Waltham, Mass.). cDNA was generated with the use of a high-capacity cDNA archive kit (Life Technologies, Carlsbad, Calif.). qPCR was performed on a Mastercycler ep realplex system (Eppendorf, Hauppauge, N.Y.) with the use of SYBR Green master mix (Roche Diagnostics, Indianapolis, Ind.) and primers synthesized by the core research facility of the University of Utah. Expression levels for VEGFA were normalized to the mean value of internal control β-actin. […]
Dissected retinas and hRMVECs were lysed in radioimmunoprecipitation assay buffer with 1:100 protease inhibitors (Roche Diagnostics, Indianapolis, Ind.) and 2 mmol/L sodium orthovanadate and were homogenized and centrifuged at 13,000 rpm (15,700 g) for 10 minutes at 4° C. Total protein in the supernatant fluid was quantified by a bicinchoninic acid assay (Pierce BCA; Thermo Fisher Scientific, Waltham, Mass.). […] Blots were visualized, and the relative densities of bands were calculated as described herein, using gel analysis software (UN-SCAN-IT gel, version 6.1; Silk Scientific, Orem, Utah). Relative activities were calculated as the ratio of phosphorylated to total protein or to β-actin and are expressed as fold difference compared with control. At least six samples from each group were measured and analyzed.
(In general: Real-time PCR tracks product formation cycle by cycle.)

Data set [8] has as its system retina. The data set is described as follows: TUNEL staining, retinal layer thickness, caspase 3 in retina, rat ROP model. The format is in vivo. Conditions: compared with PBS. The method, then:
Whole eye globes were fixed in 4% PFA containing 10 mM sodium orthovanadate for 10 minutes. Corneas and lenses were removed, and posterior eyecups were fixed for another 15 minutes in 4% PFA, then incubated in 30% sucrose/PBS at 4° C. overnight, and mounted in optimal cutting temperature compound (Tissue-Tek; Electron Microscopy Sciences, Hatfield, Pa.). Cryosections (12 μm) were cut sequentially and stained for immunofluorescence analysis. Cryosections were incubated with rabbit anti-phosphorylated VEGFR2 (p-VEGFR2 at Y951; Santa Cruz Biotechnology, Santa Cruz, Calif.) overnight at 4° C. After washes, sections were incubated with AlexaFluor 405 conjugated goat anti-rabbit second antibody for p-VEGFR2 and lectin for 1 hour. Sections stained with only secondary antibody and DAPI were controls. […] For p-VEGFR2 in retinal vessels, the density of p-VEGFR2 colabeling with lectin-stained ECs of the primary vascular plexus at the junctions between avascular retina and vascular retina was measured with the threshold function of the Java-based imaging software (NIH). TUNEL-positive cells colabeled with tetramethylrhodamine red (TMR red) and diamino-2-phenylindole (DAPI) were counted in retinal sections imaged at ×4 magnification. Retinal thickness was measured from ganglion cell to ONL in DAPI-stained sections captured at ×40 magnification using Java-based imaging software (NIH). […]

`CN(C)c1ccc(/C=C2\C(=O)Nc3ccccc32)cc1` [SU4312]: the retinal apoptosis result in data set [1] is recorded as “no retinal apoptosis”.

For `O=P(O)(O)C(Cl)(Cl)P(=O)(O)O` [clodronate], the reduction of macrophages in data set [2] is reported as ~75%. Besides, the AVA result in data set [3] was “not AVA”. Also, in data set [3] (vs. PBS), the IVNV entry was “significantly reduced”.

B1: STAT3.shRNA2: lentivector-ve-cadherin STAT3.shRNA with the best knockdown; rat STAT3 (nucleic acid)
chain: TGCTGTTGACAGTGAGCGAATCGTGGATCTGTTCAGAAACTAGTGAAGCCACAGATGTAGTTTCTGAACAGATCCACGATCTGCCTACTGCCTCGGA
In the case of B1, the “STAT3 knockdown among 3 STAT3.shRNAs” value in data set [4] is “best knockdown”. The “cell specificity of transduction” value in data set [5] is recorded as “showed specificity for rat MVECs”. The “pSTAT3/STAT3 colabeling with lectin” value in data set [6] is “STAT3-lectin colabeling was reduced”; in data set [6] (listed as STAT3.shRNA) it was “reduced”.

B2: vascular endothelial growth factor A (protein)
chain: APMAEGGGQNHHEVVKFMDVYQRSYCHPIETLVDIFQEYPDEIEYIFKPSCVPLMRCGGCCNDEGLECVPTEESNITMQIMRIKPHQGQHIGEMSFLQHNKCECRPKKDRARQENPCGPCSERRKHLFVQDPQTCKCSCKNTDSRCKARQLELNERTCRCDKPRR
notes: growth factor used at 20 ng/mL to stimulate hRMVECs
For the molecule B2, in data set [7] (20 ng/mL VEGFA or 10 IU/mL EPO), the EPOR protein result is “increased EPOR mRNA expression (FIG. 35A) and protein levels”. Moreover, the “EPOR mRNA expression” value in data set [7] was “increased EPOR mRNA expression”.

B3: luciferase.shRNA: control lentivector shRNA to the nonmammalian gene luciferase (nucleic acid)
DNA: TGCTGTTGACAGTGAGCGAAATGTTTACTACACTCGGATATAGTGAAGCCACAGATGTATATCCGAGTGTAGTAAACATTCTGCCTACTGCCTCGGA
As to B3, in data set [8], the “TUNEL+ cells” value is listed as “increased TUNEL+ cells at P18 but not at P25” and the “thickness of the retina, INL or ONL” value is “did not alter the thickness of the retina”.
